Test results from patent US20240116985A1 (published 2024).
Starred links: 1 amine or outer side, 2 acyl side, 3 side chain; linkers in the order of their positions; H or OH if unused. Positions of bridges follow the written chain, without caps; N, C: chain ends. Non-standard residues stand in square brackets, D forms with d. Primed or numbered codes have the meaning given here. No end group written: not given here. *: point of attachment. PyrS2″ = (S)-3-amino-1-((pent-4-en-1-yloxy)carbonyl)pyrrolidine-3-carboxylic acid (stapling residue), C=CCCCOC(=O)N1CC[C@@](N[*:1])(C(=O)[*:2])C1; RdN″ = (R)-4-(((allyloxy)carbonyl)(methyl)amino)-2-amino-2-methylbutanoic acid (stapling residue), C=CCOC(=O)N(C)CC[C@@](C)(N[*:1])C(=O)[*:2]; B5(32) = 2-amino-2-(pent-4-en-1-yl)hept-6-enoic acid (bis-4-pentenylglycine, two alkene side chains), C=CCCCC(CCCC=C)(N[*:1])C(=O)[*:2]; B5(4) = 2,2-bis(4-pentenyl)glycine = 2-amino-2-(pent-4-en-1-yl)hept-6-enoic acid (stitching residue), C=CCCCC(CCCC=C)(N[*:1])C(=O)[*:2]; B5(5) = 2,2-bis(4-pentenyl)glycine, 2-amino-2-(pent-4-en-1-yl)hept-6-enoic acid (stitching residue), C=CCCCC(CCCC=C)(N[*:1])C(=O)[*:2]; PyrS2 = (S)-3-amino-1-((pent-4-en-1-yloxy)carbonyl)pyrrolidine-3-carboxylic acid, C=CCCCOC(=O)N1CC[C@@](N[*:1])(C(=O)[*:2])C1; RdN = (R)-4-(((allyloxy)carbonyl)(methyl)amino)-2-amino-2-methylbutanoic acid, C=CCOC(=O)N(C)CC[C@@](C)(N[*:1])C(=O)[*:2]; (Morph)GlnR = (S)-2-amino-5-morpholino-5-oxopentanoic acid, O=C(CC[C@H](N[*:1])C(=O)[*:2])N1CCOCC1; B5(3) = 2,2-bis(4-pentenyl)glycine (stitching residue), C=CCCCC(CCCC=C)(N[*:1])C(=O)[*:2]; B5 = 2-amino-2-(pent-4-en-1-yl)hept-6-enoic acid, C=CCCCC(CCCC=C)(N[*:1])C(=O)[*:2]; Phe(3-COOH) = N[C@@H](Cc1cccc(C(=O)O)c1)C(=O)O; 2F3MeF = Cc1cccc(C[C@H](N[*:1])C(=O)[*:2])c1F; Phe(2-CF3) = N[C@@H](Cc1ccccc1C(F)(F)F)C(=O)O; S7 = C[C@@](CCCCCC=[*:3])(N[*:1])C(=O)[*:2]; Phe(3-OMe) = COc1cccc(C[C@H](N)C(=O)O)c1; Bta = N[C@@H](Cc1csc2ccccc12)C(=O)O; αAllylPro = C=CC[C@@]1(C(=O)O)CCCN1; tBuAla = CC(C)(C)C[C@H](N)C(=O)O; 3Thi = N[C@@H](Cc1ccsc1)C(=O)O; S8 = C=CCCCCCC[C@](C)(N)C(=O)O; Ms = CS(=O)(=O)*

Columns and labels:
[1] = molecular target: T1, full-length beta-Catenin (Uniprot ID P35222) (Homo sapiens (Human), UniProt P35222 2-781); assay: fluorescence polarization competition; peptide titrated against 10 nM full-length beta-catenin with 10 nM 5FAM-TCF4(10-53) probe
T1 construct: also called bCat; B-Catenin
T1 sequence: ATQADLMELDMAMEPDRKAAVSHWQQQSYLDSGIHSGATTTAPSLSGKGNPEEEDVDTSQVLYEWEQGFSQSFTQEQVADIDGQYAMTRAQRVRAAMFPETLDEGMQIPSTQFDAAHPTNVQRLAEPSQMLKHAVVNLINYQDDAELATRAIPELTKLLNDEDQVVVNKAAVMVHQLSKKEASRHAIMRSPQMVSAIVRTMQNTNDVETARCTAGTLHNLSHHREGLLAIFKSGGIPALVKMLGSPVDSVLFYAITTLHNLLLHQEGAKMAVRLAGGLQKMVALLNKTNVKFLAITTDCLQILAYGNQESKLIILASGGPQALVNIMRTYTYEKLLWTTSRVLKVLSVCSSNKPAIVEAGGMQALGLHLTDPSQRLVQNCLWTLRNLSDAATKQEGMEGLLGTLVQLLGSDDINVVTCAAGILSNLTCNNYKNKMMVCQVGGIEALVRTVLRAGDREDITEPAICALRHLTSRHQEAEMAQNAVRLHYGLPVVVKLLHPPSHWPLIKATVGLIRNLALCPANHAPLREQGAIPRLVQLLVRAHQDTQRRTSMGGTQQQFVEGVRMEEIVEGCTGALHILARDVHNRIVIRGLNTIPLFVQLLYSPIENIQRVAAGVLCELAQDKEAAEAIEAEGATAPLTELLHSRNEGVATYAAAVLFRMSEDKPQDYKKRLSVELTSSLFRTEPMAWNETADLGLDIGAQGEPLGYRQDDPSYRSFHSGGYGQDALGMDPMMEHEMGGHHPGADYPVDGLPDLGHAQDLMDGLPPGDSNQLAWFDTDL
Description: (§1) The plate was incubated protected from light for 60 minutes at 20° C. prior to read. Reads were performed on a CLARIOstar plate reader (BMG Labtech) in duplicate, and data were fitted to a 1:1 binding model with hill slope using an in-house script. All provided concentrations are final concentrations.

[2] = molecular target: T2, beta-catenin in DLD1 TCF/LEF luciferase reporter cells (UniProt P35222 2-781); assay: cell-based or functional assay
T2 sequence (looked up): T1 sequence

Bcat-Halo = molecular target: T3, Bcat-Halo (UniProt P35222 1-781); assay: cell-based or functional assay
T3 sequence (looked up): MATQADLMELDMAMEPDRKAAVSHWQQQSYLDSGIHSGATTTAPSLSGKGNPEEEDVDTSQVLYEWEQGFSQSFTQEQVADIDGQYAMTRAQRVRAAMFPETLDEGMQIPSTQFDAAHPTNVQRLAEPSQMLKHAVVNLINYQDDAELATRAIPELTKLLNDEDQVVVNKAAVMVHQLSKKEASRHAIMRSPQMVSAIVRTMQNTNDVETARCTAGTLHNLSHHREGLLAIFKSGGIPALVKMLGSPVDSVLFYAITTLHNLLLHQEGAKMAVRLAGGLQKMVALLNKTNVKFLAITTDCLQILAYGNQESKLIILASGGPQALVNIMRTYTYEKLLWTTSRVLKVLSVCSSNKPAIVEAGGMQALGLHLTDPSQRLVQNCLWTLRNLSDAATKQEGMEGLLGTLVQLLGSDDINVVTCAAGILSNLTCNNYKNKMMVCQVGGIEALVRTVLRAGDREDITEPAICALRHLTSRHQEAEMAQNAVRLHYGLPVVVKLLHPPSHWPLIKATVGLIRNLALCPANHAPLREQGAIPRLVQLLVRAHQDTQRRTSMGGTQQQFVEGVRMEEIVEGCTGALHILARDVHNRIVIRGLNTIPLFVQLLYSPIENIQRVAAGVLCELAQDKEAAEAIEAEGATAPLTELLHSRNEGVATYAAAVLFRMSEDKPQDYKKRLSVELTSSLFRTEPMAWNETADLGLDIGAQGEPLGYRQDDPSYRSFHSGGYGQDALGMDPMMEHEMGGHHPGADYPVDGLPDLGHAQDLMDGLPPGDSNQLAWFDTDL

B-cat-Halo [3] = molecular target: T4, B-cat-Halo (UniProt P35222 1-781); assay: cell-based or functional assay
T4 sequence (looked up): T3 sequence (looked up)

[4] = molecular target: T5, beta-catenin in DLD1 TCF/LEF luciferase reporter cells (UniProt P35222 1-781); assay: cell-based or functional assay
T5 sequence (looked up): T3 sequence (looked up)

B-cat-Halo [5] = molecular target: T6, B-cat-Halo (UniProt P35222 1-781); assay: cell-based or functional assay; remark: listed apart in the source
T6 sequence (looked up): T3 sequence (looked up)

[6] = molecular target: T7, full-length beta-Catenin (Uniprot ID P35222) (Homo sapiens (Human), UniProt P35222 1-781); assay: fluorescence polarization competition; peptide titrated against full-length beta-catenin + 5FAM-TCF4(10-53)
T7 construct: also called bCat; B-Catenin
T7 sequence: T3 sequence (looked up)
Description: as §1

[7] = molecular target: T8, B-cat-Halo (Nano-BRET construct expressed in HEK293 cells) (UniProt P35222 1-781); assay: cell-based or functional assay
T8 sequence (looked up): T3 sequence (looked up)

[8] = molecular target: T9, B-cat-Halo (beta-catenin HaloTag construct expressed in HEK293 cells) (UniProt P35222 1-781); assay: cell-based or functional assay
T9 sequence (looked up): T3 sequence (looked up)

[9] = molecular target: T10, beta-catenin in DLD1 TCF/LEF luciferase reporter cells (UniProt P35222 1-781); assay: cell-based or functional assay; remark: listed apart in the source
T10 sequence (looked up): T3 sequence (looked up)

B1: I-67: Ac-Ala-Asp-Ile-RdN-Asp-Glu-Ala-Ala-Phe-Gln-S7-Phe-Trp-His-NH2 (stapled peptide) (peptide)
peptide: Ac-ADI[RdN″]DEAAFQ[S7]FWH-NH2
modifications: staple 4-11
notes: This is the later eluting staple isomer composition
[1]
  IC50: 1.23 µM

## Ac-[αAllylPro]D[tBuAla][B5(4)]D[Phe(3-COOH)][(Morph)GlnR]AFL[PyrS2″][2F3MeF][Bta]A-NH2 (staple 1-4, 4-11) [I-2315]
[2]
  DLD1 4% Abs IC50: 1.5 µM
Bcat-Halo
  NanoBRET Abs IC50: 1.2 µM

## Ac-[αAllylPro]D[tBuAla][B5(32)]D[Phe(3-COOH)]AAFL[PyrS2][3Thi][Bta]NLLL-NH2 (staple 1-4, 4-11; also: later eluting staple isomer (HPLC peak)) [I-2276]
B-cat-Halo [3]
  NanoBRET Abs IC50: 4 µM
[4]
  DLD1 4% Abs IC50: 3.9 µM

## Ac-[αAllylPro]D[tBuAla][B5(5)]DDAAFN[PyrS2″][3Thi][Bta]Q-NH2 (staple 1-4, 4-11) [I-686]
B-cat-Halo [5]
  NanoBRET IC50: 7.5 µM

B2: I-710 (peptide)
peptide: Ms-[αAllylPro]DI[B5(5)]DEAAFQ[S8]F[Bta]Q-NH2
modifications: staple 1-4, 4-11
notes: separate staple-isomer composition (earlier eluting HPLC peak); also called MeSO2-PL3-Asp-Ile-B5-Asp-Glu-Ala-Ala-Phe-Gln-S8-Phe-BztA-Gln-NH2
[6]
  IC50: 0.073 µM

B3: I-724 (peptide)
peptide: Ac-[αAllylPro]DI[B5]DEAA[Phe(3-OMe)]Q[S8]F[Bta]Q-NH2
modifications: staple 1-4, 4-11
notes: also called Ac-PL3-Asp-Ile-B5-Asp-Glu-Ala-Ala-3OMeF-Gln-S8-Phe-BztA-Gln-NH2
[6]
  IC50: 0.114 µM

B4: I-711 (peptide)
peptide: Ms-[αAllylPro]DI[B5(5)]DEAAFQ[S8]F[Bta]Q-NH2
modifications: staple 1-4, 4-11
notes: separate staple-isomer composition (later eluting HPLC peak); also called MeSO2-PL3-Asp-Ile-B5-Asp-Glu-Ala-Ala-Phe-Gln-S8-Phe-BztA-Gln-NH2
[6]
  IC50: 0.088 µM

B5: I-873 (peptide)
peptide: Ac-[αAllylPro]D[tBuAla][B5(3)]DDAAFN[PyrS2″][3Thi][Bta]QAA
modifications: staple 1-4, 4-11; not fully specified; printed as Ac-PL3-Asp-Npg-B5-Asp-Asp-Ala-Ala-Phe-Asn-PyrS2-3Thi-BztA-Gln-Ala-Ala
[7]
  NanoBRET IC50: 8.9 µM

B6: I-2521 (peptide)
peptide: Ac-[αAllylPro]D[tBuAla][B5(4)]DXAAFL[PyrS2][Phe(2-CF3)][Bta]S-NH2
modifications: staple 1-4, 4-11; not fully specified (residue 6); printed as Ac-PL3-Asp-Npg-B5-Asp-[CH2CChCO2H]TriAzDap-Ala-Ala-Phe-Leu-PyrS2-2F3MeF-BztA-Ser-NH2
[8]
  NanoBRET Abs IC50 (uM); Bcat-Halo / TCF4-Luc in HEK293 cells: 5.6 µM
[9]
  DLD1 4% Abs IC50 (uM); TCF/LEF luciferase reporter assay: 3 µM

## Ac-ADI[RdN]DEAAFQ[S7]FWH-NH2 (staple 4-11) [I-66: Ac-Ala-Asp-Ile-RdN-Asp-Glu-Ala-Ala-Phe-Gln-S7-Phe-Trp-His-NH2 (stapled peptide)]
[1]
  IC50: 1.09 µM
